Test results as given in paper PMC9192718.
Blank lines part the entries; values can stand above or below the substance they belong to.

Tests used:
[1] = molecular target: Heimdallarchaeota AB125 Vps22 (HeimAB125_14050) (Heimdallarchaeota AB125); experiment: SEC-MALS; Heimdallarchaeotal Vps22 alone, loaded at 2.0 and 0.5 mg/ml; Superdex 200 increase 10/300; 20 mM Tris-HCl pH 8.0, 200 mM NaCl, 0.5 ml/min
[2] = molecular target: Heimdallarchaeota AB125 Vps22 (HeimAB125_14050) (Heimdallarchaeota AB125); experiment: cross-linking; Vps22 15 µM in 20 mM HEPES-NaOH pH 7.5, 150 mM NaCl; 16 mM EDC with 16 mM Sulfo-NHS (1 h) or 2 mM BS3 (2 h) on ice; SDS-PAGE
[3] = molecular target: Odinarchaeota (Ca. Odinarchaeum yellowstonii LCB_4) Vps23 (TSG101) (Ca. Odinarchaeum yellowstonii LCB_4); experiment: SEC-MALS; Odinarchaeota proteins; 100 µl at 2 mg/ml; Superdex 200 10/300 Increase GL; 20 mM Tris pH 8.0, 300 mM NaCl, 0.4 ml/min

stoichiometry N [1]: 2 | stoichiometry N [2]: 2
Substance: Heimdallarchaeota AB125 Vps22 (HeimAB125_14050) (natural protein)

stoichiometry N [3]: 2
Substance: Odinarchaeota (Ca. Odinarchaeum yellowstonii LCB_4) Vps23 (TSG101) (natural protein)

stoichiometry N (Vps28 per Vps23 dimer) [3]: 1
Substance: Odinarchaeota (Ca. Odinarchaeum yellowstonii LCB_4) Vps28 (natural protein)
